Test system: MS2 coat protein
Assay: apparent KD of MS2 coat protein; designed switch direction (-1 OFF switch, 1 ON switch): -1; higher = weaker reporter binding
In short: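 Designed RNA switches were transcribed on Illumina chips by stalled E. coli RNA polymerase and titrated with SNAP-549-labelled MS2 coat protein from 0.7 or 1.5 nM, doubling to 3 µM. Step length ran from 0.8–1.5 h at the lowest concentration to 10–20 min at the highest. The apparent KD is the median over clusters for each design, from curve-fitted normalised cluster fluorescence.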

[1] = Eterna round: R95, input ligand: FMN 200 uM
[2] = Eterna round: R95, input ligand: microRNA oligo, concentration not stated
[3] = Eterna round: R95, input ligand: none
[4] = input ligand: microRNA oligo, concentration not stated

Row | Sequence | apparent KD of MS2 coat protein [1] [nM] | apparent KD of MS2 coat protein [2] [nM] | apparent KD of MS2 coat protein [3] [nM] | apparent KD of MS2 coat protein (input ligand: FMN 200 uM) [nM] | apparent KD of MS2 coat protein (input ligand: none) [nM] | apparent KD of MS2 coat protein [4] [nM]
1 | GAUUAUGCGAGCUUUAGGGACAUGAGGAUCACCCAUGUUCGUCUUGUUGAUCUAGGUGCGCUAACAUACCUAAAUCU [JMF 48] (puzzle: Sensor v3, turn-off variant 1) | 23.5 | 30.5 | 23.4 |  |  | 
2 | GAUUCGGGAGGAUAUACAUGAGGAUCACCCAUGUAUAUAUAAUAUAAUAAAUUAAAAUGUAGAAGGUUUGGGUC [-13.5, -9.6 kcal, 38% A] (Eterna round: R97, puzzle: Exclusion 3) |  |  |  | 22.8 | 23.2 | 
3 | GAUUCGGGAGGAUAUACAUGAGGAUCACCCAUGUGUAUAUAAUAUGUUAAGUUAUCAUGUAGAAGGUUUGGGUC [-16.5, -16.2 kcal, 30% A] (Eterna round: R97, puzzle: Exclusion 3) |  |  |  | 38 | 49 | 
4 | GCAAGCUUAAUCAGUAUGAACAUGAGGAUCACCCAUGUAUAAGGUAAUACUUUUGGGCCCUUUAUUACUCGUCUUAU [JR_STOV1_Sub029] (Eterna round: R97, puzzle: Sensor, turn-off variant 1) |  |  |  | 67.4 | 72.6 | 
5 | GCAAGCUUGUCAAGAUCCCACAUGAGGAUCACCCAUGUGCAUCGUCUGAGCCCAUAGCUAGUCAUCUGCGGGUGCGU [Eternabot (Original) Solution 15] (Eterna round: R97, puzzle: Sensor, turn-off variant 1) |  |  |  | 40.3 | 44.7 | 
6 | GCAAGCUUUUGCUCGUCUUACAUGAGGAUCACCCAUGUCGGGUGCUUGCUUGCGUCCGGCGUCUGGGCCGUGGCGGU [-31.9, -55.1 kcal, A 10%] (Eterna round: R97, puzzle: Sensor, turn-off variant 1) |  |  |  | 22.2 | 21.6 | 
7 | GCAAGGGAAGGAUAUACAUUACGACCGUCAUAGUACCUGCGACAUGAGGAUCACCCAUGUAGAAGGUCCAGCGG [EX2 C.13] (Eterna round: R97, puzzle: Exclusion 2) |  |  |  | 17.4 | 13.3 | 
8 | GCACAGGCAGGAUAUACAUGAGGAUCACCCAUGUGAUCCCUUAAGUACAAAAGUACAAGUAGAAGGGCCUGUGC [Omei Ex3 Model Bachelor's Dilema v43] (Eterna round: R97, puzzle: Exclusion 3) |  |  |  | 21.2 | 916 | 
9 | GCACCAUGGCUUACUAGCCGUUAAACAUGAGGAUCACCCAUGUAGGAUAUGGUCUGGAUUACAGGCCAGAAGGGCGUAAGGUGC [JL Eli 026 mod] (Eterna round: R96, puzzle: Exclusion NG 3) |  |  |  | 15.9 | 19.8 | 13.1
10 | GCACGGAAUGUAGGAUAUUAGUGCGAUUAGCACUGAGAAGGACAUGAGGAUCACCCAUGUAACUCAAUAAUAAACCUUCCGUGC [Eli exng1 - 045] (Eterna round: R96, puzzle: Exclusion NG 1) |  |  |  | 11.2 | 12.2 | 8.85
11 | GCACGGAGUGUAGGAUAUCUGUGCGAUUAGCUCAGAGAAGGACACAUGAGGAUCACCCAUGUGUAACAACACAAUAAUCCGUGC [Eli exng1 - 072] (Eterna round: R96, puzzle: Exclusion NG 1) |  |  |  | 12.3 | 14.2 | 11.2
12 | GCACGGAGUGUAGGAUAUCUGUGCGAUUAGCUCAGAGAAGGACACAUGAGGAUCACCCAUGUUACCUCAAUUAGCCUUCCGUGC [Eli exng1 - 032] (Eterna round: R96, puzzle: Exclusion NG 1) |  |  |  | 30.4 | 19 | 17
13 | GCACGGUAAGUGAGGAUAUACCUCUGGAUACAGAGGUAGAAGGCACAUGAGGAUCACCCAUGUCCAAGCCGUGC [Fiskers BMX 4 - 84] (puzzle: Brourd's mod of Exclusion 4) |  | 22.8 |  |  |  | 
14 | GCACUGCGAGGAUAUACAUGAGGAUCACCCAUGUGUCGGCAGCCAUGGUAGUACAAAUGUAGAAGGCGCGUAAA [EX3 #50] (Eterna round: R97, puzzle: Exclusion 3) |  |  |  | 85.6 | 587 | 
15 | GCACUGGCAGGAUAUACAUGAGGAUCACCCAUGUGAUCCCUUAGGUACAAAAGUACAAGUAGAAGGGCCUGUGC [Omei Ex3 Model Bachelor's Dilema v44] (Eterna round: R97, puzzle: Exclusion 3) |  |  |  | 52.2 | 845 | 
16 | GCAGACGUAGUGAGGAUAUGCUCUACCUCGGUAGAGCAGAAGGCACAUGAGGAUCACCCAUGUGACUCCUCAUC [Omei Ex4B B18] (Eterna round: R97, puzzle: Brourd's mod of Exclusion 4) |  |  |  | 49.2 | 20.1 | 
17 | GCAGAUGAAGUGAGGAUAUGCUCUACCUCGGUAGAGCAGAAGGCACAUGAGGAUCACCCAUGUGAUUCAUCUGC [Omei Ex4B B6] (Eterna round: R97, puzzle: Brourd's mod of Exclusion 4) |  |  |  | 35.4 | 17 | 

Row | Sequence | apparent KD of MS2 coat protein [1] [nM] | apparent KD of MS2 coat protein [2] [nM] | apparent KD of MS2 coat protein [3] [nM] | apparent KD of MS2 coat protein (input ligand: FMN 200 uM) [nM] | apparent KD of MS2 coat protein (input ligand: none) [nM] | apparent KD of MS2 coat protein [4] [nM]
18 | GCAGCAAACCCAAUUAAAACCACAUGAGGAUCACCCAUGUCUCAGGAUAUGGUCUGGAUUACAGGCCAGAAGGGAGAAAGCUGC [Eli exng3 - 052] (Eterna round: R96, puzzle: Exclusion NG 3) |  |  |  | 16.2 | 17.7 | 10.7
19 | GCAGCAUAGUCGGAAACGACAGAACAUGAGGAUCACCCAUGUCAGGAUAUGGUCUGGAUUACAGGCCAGAAGGGACGAAGCUGC [Eli exng3 - 010] (Eterna round: R96, puzzle: Exclusion NG 3) |  |  |  | 13.5 | 16 | 11.4
20 | GCAGGCGACUAGGCUCGUCUUAUUUUGAGAAGAUUGAAAACAUGAGGAUCACCCAUGUUUGUGGGAGAGUUGGAGUG [JR_SV3TOV2_Sub013] (puzzle: Sensor v3, turn-off variant 2) | 59.4 | 73 | 65.3 |  |  | 
21 | GCAGUAUGAGUUAGGAUAUGAUGAUUUUUAUUAAAUCAGAAGGAACUUGAGGAUCACCCAAGUAAAGAAUUGGU [JR_BMEx4_Sub069] (Eterna round: R97, puzzle: Brourd's mod of Exclusion 4) |  |  |  | 23.3 | 20.4 | 
22 | GCAGUCAAAGUGAGGAUAUCUAGAGCGAUAGCUCUAGAGAAGGCACAUGAGGAUCACCCAUGUGAUCAGACUGC [BmEx4/7-A4'1] (Eterna round: R97, puzzle: Brourd's mod of Exclusion 4) |  |  |  | 605 | 257 | 
23 | GCAGUGUCAGGAUAUUCGAGUUCGAGUGAAAGCUUGAGCUUGAAGAAGGGACAUGAGGAUCACCCAUGUGCUGU [-28.7, -27.7 kcal, A 27%, 1bis-(ca)1bis] (Eterna round: R97, puzzle: Exclusion 4) |  |  |  | 117 | 42.1 | 
24 | GCAGUGUGAGUUAGGAUAUGAUGAUUUUUUAUUGGUCAGAAGGAACUUGAGGAUCACCCAAGUUAGGAAUUGGU [JR_BMEx4_Sub075] (Eterna round: R97, puzzle: Brourd's mod of Exclusion 4) |  |  |  | 40.3 | 33.1 | 
25 | GCAGUUCGAGUUAGGAUAUGAUGUUAAUUCGGAUAUCAGAAGGAACUUGAGGAUCACCCAAGUAUAGAUGUUGC [JR_BMEx4_Sub060] (Eterna round: R97, puzzle: Brourd's mod of Exclusion 4) |  |  |  | 29.6 | 18.6 | 
26 | GCAUCCAAAGUGAGGAUAUACCUCUGGAUACAGAGGUAGAAGGCACAUGAGGAUCACCCAUGUUACUAGGAUGC [Fiskers BMX 4 - 35] (puzzle: Brourd's mod of Exclusion 4) |  | 13.2 |  |  |  | 
27 | GCAUGCUCCGAGGAUAUCGAAGCUAAUUAUGCACGAGAAGGCGGAACAUGAGGAUCACCCAUGUGAUGCCAAUG [Qutequen] (Eterna round: R97, puzzle: Exclusion 6) |  |  |  | 51.9 | 21.6 | 
28 | GCAUGUCUUAAGGAUAUGCUAAGGCGUGAGCCAGCAGAAGGUAAGACAUGAGGAUCACCCAUGUUUUCCUAAAA [jl-ex6-4.33 ViennaUCT mod] (Eterna round: R97, puzzle: Exclusion 6) |  |  |  | 68.5 | 18.9 | 
29 | GCAUGUCUUAAGGAUAUGCUAAGGCGUGAGCCGGCAGAAGGUAAGACAUGAGGAUCACCCAUGUUUUCCUAAAA [jl-ex6-4.32 ViennaUCT mod] (Eterna round: R97, puzzle: Exclusion 6) |  |  |  | 91.3 | 20.7 | 
30 | GCCGAGUGAGGAUAUACAUGAGGAUCACCCAUGUAAACACGAAAGCAAGUGUCCCUCAGUAGAAGGCGCCUGGA [Aerusesxe] (puzzle: Exclusion 3) |  | 14.8 |  |  |  | 
31 | GCCGUAAAUGUGAGGAUAUACCUAUGGAAACAUAGGUAGAAGGCACAUGAGGAUCACCCAUGUUCUCAAUCGGC [Mat - Exclusion 4 - Eli Mod - D6] (Eterna round: R97, puzzle: Brourd's mod of Exclusion 4) |  |  |  | 775 | 195 | 
32 | GCCUCACAUGAGGAUCACCCAUGUCAGGAUAUCUAACGCGAGGUGCAGGCACUUCGUGAGAGAAGGGACGUCAA [Iszabius] (puzzle: Exclusion 1) |  | 19.4 |  |  |  | 
33 | GCCUCACUUGAGGAUCACCCAAGUCAGGAUAUUCACGGAACUACGUAGUAGUUCGGCCGGAGAAGGGAUUCGGG [Qubexe] (Eterna round: R97, puzzle: Exclusion 1) |  |  |  | 64.8 | 41.8 | 
34 | GCCUCACUUGAGGAUCACCCAAGUCAGGAUAUUCACGGAACUAUGUAGCAGUUCGGCCGGAGAAGGGAUUCGGG [Areses] (Eterna round: R97, puzzle: Exclusion 1) |  |  |  | 88.4 | 35 | 

— the supplement of paper PMC9170038
